Test results published in PMC4744555, “Pi Release Limits the Intrinsic and RNA-Stimulated ATPase Cycles of DEAD-Box Protein 5 (Dbp5)” (Journal of Molecular Biology, 2016).
Each block holds one molecule with its values, some of them ahead of it.

Tests used:
Dbp5 [1] = target: T1, Dbp5 (Saccharomyces cerevisiae, UniProt P20449); test: kinetic competition with mantADP, FRET stopped flow; assay type: binding; conditions: no RNA; 30 mM Hepes pH 7.5, 100 mM KCl, 2 mM MgCl2, 2 mM DTT, 25 °C
T1 construct: full-length, N-terminal 6xHis tag, expressed in E. coli
T1 sequence (P20449 1-482): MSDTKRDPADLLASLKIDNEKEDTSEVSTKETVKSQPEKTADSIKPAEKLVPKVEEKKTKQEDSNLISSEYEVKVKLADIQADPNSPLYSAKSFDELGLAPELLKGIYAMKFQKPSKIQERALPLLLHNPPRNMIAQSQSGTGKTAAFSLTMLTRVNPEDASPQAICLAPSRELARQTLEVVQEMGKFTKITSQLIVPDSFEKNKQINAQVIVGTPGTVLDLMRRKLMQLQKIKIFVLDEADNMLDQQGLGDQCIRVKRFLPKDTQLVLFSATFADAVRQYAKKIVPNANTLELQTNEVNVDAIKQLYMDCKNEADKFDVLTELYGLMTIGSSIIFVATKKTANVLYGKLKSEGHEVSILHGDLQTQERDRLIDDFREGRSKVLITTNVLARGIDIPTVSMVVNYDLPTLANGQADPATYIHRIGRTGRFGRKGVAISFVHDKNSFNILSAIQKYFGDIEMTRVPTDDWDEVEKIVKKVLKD
From the text: kinetic competition with mantADP, FRET stopped flow on Dbp5

Dbp5 [2] = target: T1, Dbp5; test: transient Pi release lag phase, phosphate binding protein (PiBiP), stopped flow; assay type: biochemical; conditions: no RNA; 30 mM Hepes pH 7.5, 100 mM KCl, 2 mM MgCl2, 2 mM DTT, 25 °C; ATP dissociation constant from lag-phase dependence; also determined by mant-nucleotide competition
From the text: transient Pi release lag phase, phosphate binding protein (PiBiP), stopped flow on Dbp5

Dbp5 [3] = target: T1, Dbp5; test: FRET stopped flow, total fluorescence amplitude; assay type: binding
From the text: FRET stopped flow, total fluorescence amplitude on Dbp5

[4] = substrate: Nc1ncnc2c1ncn2[C@@H]1O[C@H](CO[P@](=O)(O)O[P@](=O)(O)O[P@@](=O)(O)S)[C@@H](O)[C@H]1O; test: NADH-coupled steady-state ATPase assay; assay type: biochemical, Saccharomyces cerevisiae; conditions: no RNA, 30 mM Hepes pH 7.5, 100 mM KCl, 2 mM MgCl2, 2 mM DTT, 25 °C
From the text: (§1) NADH-coupled steady-state ATPase assay on Dbp5

[5] = substrate: Nc1ncnc2c1ncn2[C@@H]1O[C@H](COP(=O)(O)OP(=O)(O)OP(=O)(O)O)[C@@H](O)[C@H]1O; test: NADH-coupled steady-state ATPase assay; assay type: biochemical, Saccharomyces cerevisiae; conditions: no RNA, 30 mM Hepes pH 7.5, 100 mM KCl, 2 mM MgCl2, 2 mM DTT, 25 °C
From the text: as §1

Kd (Dbp5 [1]): 360 µM
Molecule: Nc1ncnc2c1ncn2[C@@H]1O[C@H](COP(=O)(O)OP(=O)(O)O)[C@@H](O)[C@H]1O [ADP]

Kd (Dbp5 [2]): 4000 µM
Molecule: Nc1ncnc2c1ncn2[C@@H]1O[C@H](COP(=O)(O)OP(=O)(O)OP(=O)(O)O)[C@@H](O)[C@H]1O [ATP]

Kd (Dbp5 [3]): 1 µM
Molecule: CNc1ccccc1C(=O)O[C@H]1[C@@H](O)[C@H](n2cnc3c(N)ncnc32)O[C@@H]1CO[P@@](=O)(O)O[P@](=O)(O)OP(=O)(O)O [mantATP]

B1: Dbp5 (Saccharomyces cerevisiae S288C) (protein)
chain: T1 sequence (P20449 1-482)
notes: full-length, N-terminal 6xHis tag, expressed in E. coli
Km [4]: 0.98 (± 0.06) mM | kcat [4]: 0.036 (± 0.001) s^− 1 | Km [5]: 1.7 (± 0.2) mM | kcat [5]: 0.043 (± 0.001) s^− 1
